Results published in the supplement of paper PMC10567573.

B1: TBX6 (parent)
chain: AFLELPHGSGGSGYPAAPPAVPFA
B2: TEKT4 (parent)
chain: YARYHQAFADRDQSERQRHESQQL

Variants of: B1
Assay: protein stability index of a GFP-peptide fusion (GPS, HEK-293T) (PSI 1-6); higher = more stable
Details: c terminus: a fixed tail appended
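Note: lentivirally expressed fusions sorted by FACS into six bins by GFP to DsRed ratio, PSI derived from sequencing read proportions per bin multiplied by bin number.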

Protein stability index, by site and new letter:
F2: K 3.76 | G 3.33 | P 4.04 | E 4.25 | Y 2.82 | A 3.45 | H 3.88 | D 3.93 | S 3.63 | M 2.83 | Q 3.65 | C 3.58 | N 4.05 | R 3.22 | W 2.11 | V 3.2 | L 3.08 | I 2.94 | T 3.49
A1: V 1.78 | P 2.94 | R 2.58 | N 2.83 | G 2.84 | F 1.89 | Q 2.77 | C 1.41 | K 3.26 | E 3.11 | H 3.13 | M 1.61 | T 2.71 | W 1.89 | I 2.67 | Y 2.21 | D 2.83 | L 2.07 | S 2.08
L3: G 3.43 | D 3.96 | H 3.19 | F 2.68 | E 3.66 | C 2.7 | A 3.14

Variants of: B2
Assay: as above
Details: c terminus: a fixed tail appended

Protein stability index, by site and new letter:
S21: Y 1.29 | C 2.77 | T 3.06 | R 2.46 | K 1.46 | D 1.78 | A 2.01 | N 1.98 | H 1.99 | I 2.41 | E 2.5 | V 2.16 | G 2.32 | F 1.59 | Q 1.59 | W 1.69 | M 1.65 | P 2.39 | L 1.83
D10: A 1.8 | Q 2.17 | S 2.49 | C 2.36 | F 1.99 | H 2.19 | R 2.77 | M 1.97 | Y 2.26 | L 2.29 | G 2.37 | I 2.58 | W 2.39 | N 2.33 | T 1.85 | V 2.32 | K 3.05
R16: P 2.08 | V 2.35 | C 2.63 | L 3.1 | H 2.28 | I 2.2 | Q 2.21 | G 2.48 | S 2 | Y 1.91 | E 2.43 | K 1.93 | A 2.35 | F 2.81 | T 2.26 | D 2.4 | N 2.4 | M 1.89 | W 2.07
R11: H 2.32 | K 2.46 | S 2.64 | C 2.14 | D 3.59 | Y 1.64 | G 2.82 | I 2.1 | M 2.54 | E 3.29 | V 2.12 | A 2.4 | F 1.99 | L 1.98 | P 3.03 | N 2.83 | T 2.12 | Q 3.07
Q13: T 1.79 | W 1.72 | E 1.74 | L 2.49 | Y 1.85 | N 2.22 | G 2.08 | A 1.96 | M 1.64 | K 1.91 | P 2.36 | V 1.99 | F 1.83 | I 2.35 | R 1.88 | D 2.35 | C 2.13 | H 2.19 | S 2.49
E20: I 1.57 | N 2.18 | W 1.51 | C 2.01 | L 1.64 | V 2.21 | G 2.19 | S 2.3 | F 1.76 | H 2.22 | Y 2.06 | M 1.74 | K 2.06 | D 2.36 | Q 1.53 | A 2.51 | R 2.13 | P 2.23 | T 2.27
S14: Q 2.13 | L 2.72 | G 1.8 | N 2.21 | V 2.31 | T 2.37 | E 2.59 | F 1.48 | R 1.63 | Y 2.07 | I 2.16 | H 1.99 | A 1.88 | D 2.76 | M 1.79 | K 2.22 | W 1.71 | P 3.2 | C 1.46
L24: G 2.37 | Q 2.57 | H 2.42 | W 1.85 | F 2.37 | N 2.23 | Y 2.12 | E 2.24 | D 2.14 | K 1.73 | S 2.27 | M 2.21 | T 2.15 | P 1.64 | A 1.88 | C 1.67 | V 1.57 | I 2.03 | R 1.68
Q17: G 1.87 | K 2.13 | V 2.31 | M 1.73 | H 1.9 | W 2.22 | N 1.68 | L 2.32 | A 2 | D 2.21 | I 2.34 | T 2 | C 2.07 | Y 2.72 | R 1.94 | F 2.56 | P 2.11 | S 1.87 | E 1.63
A9: R 2.35 | T 3.36 | S 2.48 | Y 2.89 | Q 2.98 | V 3.35 | P 3.9
Q22: T 1.63 | W 1.43 | N 2.1 | M 2.2 | F 1.9 | R 1.85 | D 2.17 | P 2.17 | V 1.79 | K 2.17 | S 1.92 | C 1.57 | I 1.66 | Y 1.65 | H 2.36 | E 2.25 | L 1.82 | A 1.8 | G 1.85
E15: H 1.75 | Q 1.97 | Y 1.09 | D 2.1 | N 2.35 | S 1.76 | V 1.83 | L 2.18 | I 1.52 | T 2.07 | M 1.31 | C 2.36 | F 2.76 | W 1.61 | P 1.8 | K 1.73 | A 1.87 | R 1.78 | G 1.9
D12: Q 2.31 | T 2.12 | A 1.43 | V 2.06 | K 1.67 | R 1.44 | P 1.57 | W 2.99 | M 1.7 | C 2.17 | N 1.93 | I 2.58 | Y 1.86 | F 1.85 | L 1.98 | G 2.08 | E 2.01 | S 1.67 | H 2.15
H19: G 2.64 | A 2.11 | Y 1.61 | I 2.53 | C 2.39 | K 2.63 | R 2.05 | D 2.25 | S 2.25 | L 1.65 | Q 2.51 | T 1.97 | V 2.31 | F 1.48 | M 2.35 | N 2.08 | P 2.51 | E 2.19 | W 1.94
Q23: Y 2.19 | W 1.7 | V 1.68 | E 1.97 | D 2.37 | A 1.84 | H 2.34 | C 2.11 | P 1.92 | S 2.41 | R 2.65 | K 3 | N 1.91 | F 1.44 | M 1.94 | G 2.01 | I 1.66 | T 1.85 | L 2.63
R18: Y 2.82 | T 2.45 | L 2.18 | M 1.78 | N 2.01 | I 2.15 | K 2.26 | P 2.26 | C 2.6 | W 2.01 | H 2.81 | V 2.31 | S 2.59 | Q 2.24 | F 2.23 | A 1.9 | D 2.36 | E 2.2 | G 3.52
